# T1: ALPI His homodimer (Homo sapiens, UniProt P09923)
# T1 sequence (P09923 with tags, fused parts or gaps): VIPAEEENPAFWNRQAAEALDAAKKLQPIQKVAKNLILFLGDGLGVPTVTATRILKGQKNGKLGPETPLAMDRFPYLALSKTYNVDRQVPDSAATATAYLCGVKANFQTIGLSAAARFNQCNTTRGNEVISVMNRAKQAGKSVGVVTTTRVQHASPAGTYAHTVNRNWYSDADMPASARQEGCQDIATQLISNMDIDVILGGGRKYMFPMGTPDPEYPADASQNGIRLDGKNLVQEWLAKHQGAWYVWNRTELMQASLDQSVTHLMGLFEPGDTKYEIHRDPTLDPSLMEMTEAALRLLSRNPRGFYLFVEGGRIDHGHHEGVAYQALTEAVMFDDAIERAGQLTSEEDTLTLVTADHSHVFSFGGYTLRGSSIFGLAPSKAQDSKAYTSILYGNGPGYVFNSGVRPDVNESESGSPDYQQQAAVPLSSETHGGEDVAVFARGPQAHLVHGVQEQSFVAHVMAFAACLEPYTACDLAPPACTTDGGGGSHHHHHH
# Experiments:
# ALPP [1] = biological target: T2, ALPP (Homo sapiens, UniProt P05187); test: BLI binding kinetics, human ALPP immobilised on AR2G sensors (KD / KD apparent); details: for hALPP Ka / hALPP Kd: VHH domains
# T2 sequence (P05187 with tags, fused parts or gaps): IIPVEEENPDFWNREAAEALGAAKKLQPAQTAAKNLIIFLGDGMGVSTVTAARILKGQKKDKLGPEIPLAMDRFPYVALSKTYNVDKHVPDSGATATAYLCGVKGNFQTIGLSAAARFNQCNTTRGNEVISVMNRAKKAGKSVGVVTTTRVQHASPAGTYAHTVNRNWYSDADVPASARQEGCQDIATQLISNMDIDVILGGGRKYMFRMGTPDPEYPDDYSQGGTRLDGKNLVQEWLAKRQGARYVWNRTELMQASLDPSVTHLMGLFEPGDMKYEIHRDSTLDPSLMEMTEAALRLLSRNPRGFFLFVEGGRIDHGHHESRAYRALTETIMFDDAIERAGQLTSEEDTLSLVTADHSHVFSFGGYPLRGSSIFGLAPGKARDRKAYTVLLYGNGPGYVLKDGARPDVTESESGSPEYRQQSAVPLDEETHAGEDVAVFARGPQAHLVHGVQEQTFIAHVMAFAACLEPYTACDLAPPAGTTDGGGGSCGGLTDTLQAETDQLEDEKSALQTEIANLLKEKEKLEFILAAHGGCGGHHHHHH
# Experimental: Binding kinetics were determined using the Biolayer Interferometry (BLI) Octet K2 system (Sartorius). Human ALPP, ALPPL2, ALPL (each fused with a cysteine stabilised leucine zipper) and ALPI, (SEQ ID NO: 265, SEQ ID NO: 266 and SEQ ID NO: 267 and SEQ ID NO: 264 respectively) were immobilised in sodium acetate pH5 buffer to AR2G sensors using amine coupling. All assays were conducted in PBS with a plate temperature of 25° C. Ka (M^−1s^−1), Kd (s^−1) and KD (nM) values were determined using Octet Data Analysis High Throughput software (ForteBio) for Biolayer Interferometry.
# (§1) Binding kinetics were determined using the Biolayer Interferometry (BLI) Octet K2 or R4 system (Sartorius). Human ALPP, ALPPL2 and ALPL all fused with a disulphide stabilised leucine zipper (SEQ ID NO: 265, SEQ ID NO: 266, and SEQ ID NO: 267) and ALPI His (SEQ ID NO: 264) were used in BLI experiments. For KD apparent measurements, the ALPP proteins were immobilised in sodium acetate pH5 buffer to AR2G sensors using amine coupling. To measure 1:1 interactions, AHC biosensors were used to immobilise Fc-fused proteins. All assays were conducted in HBS-EP with a plate temperature of 25° C. Ka (M^−1s^−1), Kd (s^−1) and KD (nM) values were determined using Octet Data Analysis High Throughput software (Sartorius) for Biolayer Interferometry.
# as §1, with “NO:264)” for “NO: 264)”
# ALPI His homodimer = biological target: T1, ALPI His homodimer; test: ELISA binding to ALPI; details: 500 ng purified VHH
# Experimental: ELISA was used to test the binding and specificity of the VHHs. ALPP CysHis (SEQ ID NO: 263), ALPI His homodimer (SEQ ID NO: 264) or BSA (Thermo Fisher) were coated onto plates and 500 ng of each purified VHH added. Anti-Llama—HRP antibody was used for detection.
# [2] = Thermal stability (Protein Thermal Shift assay); format: physicochemical; details: VHH domains, first derivative analysis
# Experimental: Thermal stability assays used Applied Biosystems StepOne Real Time PCR system with the Protein Thermal Shift™ dye kit (Thermo Fisher). The assay mix was set up so that the protein was at a final concentration of 20 µM in 20 μL. 5 μL of Thermal Shift™ buffer was added alongside 2.5 μL 8× Thermal Shift™ Dye. Assays were run using the StepOne software and data analysed using Protein Thermal Shift™ software. All data are from first derivative analysis.
# ALPP [3] = biological target: T2, ALPP; test: Epitope binning by BLI competition assay; format: binding; details: BLI competition on immobilised ALPP
# Experimental: To determine epitope cross reactivity BLI competition assays were conducted. AR2G sensors were used and ALPP immobilised as above. ALPP sensors were then dipped into a well containing a saturating concentration of the initial binder for ten minutes to get an association curve. The sensor was then dipped into a well containing the same concentration of initial binder plus 20 nM of a secondary binding.
# An increase in the association curve was indicative that the second VHH bound to a distinct epitope from the initial binder. Monomers with identical CDR3s were grouped as likely to be in the same epitope bin and only one from each group used in the epitope binning experiment.
Molecule,hALPP Ka (ALPP [1]) [M⁻¹ s⁻¹],hALPP Kd (ALPP [1]) [s⁻¹],ELISA hALPI (ALPI His homodimer),epitope bin (ALPP [3]),"Kd (ALPP [1]; VHH domains (His-tagged monomers), PBS, 25° C., read-out: hALPP KD) [nM]",Tm [2] [°C]
"A08: ALPP targeting VHH domain, SEQ ID NO: 18 (protein) VHH: QVQLVESGGGLVQAGESLRLACAASGTIFSGNAVGWYRQAPEKQREWVSSITDYGDTDYAEAVKGRFTISRDNAKNTVYLQMNSLKPEDTAVYYCYVYQRGESEEYWGQGTKVTVSS",429000,0.000012,No Binding,–,–,71.4
"B09: ALPP targeting VHH domain, SEQ ID NO: 21 (protein) VHH: QVQLVESGGGSVQAGGSLRLSCAASGPSLSHYAMGWFRQAPGKEREFVAGISWGGGRTSYTDSVKGRFTISRDNAKNTVYLQMNNLKPEDTGVYYCAGRYGRGRNVEYEYDYWGQGTQVTVSS",237000,<1e-07,No Binding,one,–,77.1
"H10: ALPP targeting VHH domain, SEQ ID NO: 40 (protein) VHH: QVQLVESGGGSVQTGGSLRLSCAASGPSLSNYAMGWFRQAPGKEREFVAGISWGGGRTNYLDSVKGRFTISRDNAKNTMYLQMNSLKPEDAAVYYCAGRYGRGRDVEYEYDYWGQGTQVTVSS",45900,0.0000085,No Binding,–,–,64.9
"D11: ALPP targeting VHH domain, SEQ ID NO: 29 (protein) VHH: QVQLVESGGGSVQAGGSLRLSCAASGPSLSNYAMGWFRQAPGKEREFVAGISWGGGRTSYTDSVKGRFTISRDNAKNTVYLQMNNLKPEDTGVYYCAGRYGRGRNVEYEYDYWGQGTMVTVSS",97700,<1e-07,No Binding,–,–,78.1
"F09: ALPP targeting VHH domain, SEQ ID NO: 36 (protein) VHH: QVQLVESGGGSVQAGGSLRLSCAASGPSLSNYAMGWFRQAPGKEREFVAGISWGGGRTSCTDSVKGRFTISRDNAKNTVYLQMNNLKPEDTGVYYCAGRYGRGRNVEYEYDYWGQGTQVTVSS",40600,<1e-07,No Binding,–,–,72.1
"H09: ALPP targeting VHH domain, SEQ ID NO: 39 (protein) VHH: QVQLVESGGGSVQTGGSLRLSCAASGPSLSNYAMGWFRQAPGKEREFVAGISWGGGRTNYLDSVKGRFTISRDNAKNTMYLQMNSLKPEDTAVYYCAGRYGRGRDVEYEYDYWGQGTQVTVSS",58600,<1e-07,No Binding,–,–,68.8
"C06: ALPP targeting VHH domain, SEQ ID NO: 24 (protein) VHH: QVQLVESGGGLVQPGGSLRVSCAASGPSLSNYAMGWFRQAPGKEREFVAGISWGGGRTSYTDSVKGRFTISRDNAKNTVYLQMNNLKPEDTGVYYCAGRYGRGRNVEYEYDYWGQGTQVTVSS",368000,<1e-07,No Binding,–,–,71.6
"D08: ALPP targeting VHH domain, SEQ ID NO: 27 (protein) VHH: QVHLVESGGGSVQAGGSLRLSCAASGPSLSNYAMGWFRQAPGKEREFVAGISWGGGRTSYTDSVKGRFTISRDNAKNTVYLQMNNLKPEDTGVYYCAGRYGRGRNVEYEYDYWGQGTKVTVSS",175000,<1e-07,No Binding,–,–,64.9
"C05: ALPP targeting VHH domain, SEQ ID NO: 23 (protein) VHH: QVQLVESGGGLVQAGGSLRLSCAASRRSFSEYAMGWFRQAPGKEREFVAAIGWSGVIEYADSVKGRFTISRDNAKDTVYLQMNSLKPEDTAVYYCAAGLGIRVVSQTPAYWGQGTQVTVSS",394000,<1e-07,No Binding,–,–,80.6

# Second part, led by results:
hALPP Ka (ALPP [1]) [M⁻¹ s⁻¹],hALPP Kd (ALPP [1]) [s⁻¹],ELISA hALPI (ALPI His homodimer),epitope bin (ALPP [3]),"Kd (ALPP [1]; VHH domains (His-tagged monomers), PBS, 25° C., read-out: hALPP KD) [nM]",Molecule,Tm [2] [°C]
38600,<1e-07,No Binding,–,–,"F12: ALPP targeting VHH domain, SEQ ID NO: 37 (protein) VHH: QVQLVESGGGLVEAGGSLRLSCAVSGSALSDYNIGWFRQAPGKEREFVARKTWDGSSTKYDDSVKGRFTVSIDNAKNTAYLQMNSLKTEDTAVYYCAAGRYSRVRGWEYDYWGQRTQVTVSS",62.9
39200,0.000028,No Binding,–,–,"E12: ALPP targeting VHH domain, SEQ ID NO: 33 (protein) VHH: QVQLVESGGGSVQAGGSLRLSCAASGPSISNFAMGWFRQAPGKEREFVAGISWGGGRTNYLDSVKGRFTISRDNAKNMVHLQMNSLKPEDTTVYYCAGRYGRGRDVEYEYDYWGQGTQVTVSS",55.5
360000,<1e-07,No Binding,–,< 0.01,"A12: ALPP targeting VHH domain, SEQ ID NO: 19 (protein) VHH: QVHLVECGGGSVQAGGFLRLSCAASGPSLSNYAMGRFRQAPGKEREFVAGISWGGGRTSYTDSVKGRFTISRDNAKNTVYLQMNNLEPEDTGVYYCAGRYGRGRNVEYEYDYWGQGTKVTVSS",76.3
149000,0.0000018,No Binding,–,–,"E11: ALPP targeting VHH domain, SEQ ID NO: 32 (protein) VHH: QVQLVESGGGSVQAGGSLRLSCAASGPSLSNFAMGWFRQPPGKEREFVAGISWGGGRTSYTDSVKGRFTISRDNAKNTVYLQMNNLKPEDTGVYYCAGRYGRGRNVEYEYDYWGQGTQVTVSS",78.0
